Assay [1] addresses T1, cynomolgus monkey CDH6 (on cells) (cynomolgus monkey, UniProt P55285 54-790 (human entry)).
T1 construct: Expressed from pcDNA3.1-cynoCDH6; also called cynoCDH6
T1 sequence: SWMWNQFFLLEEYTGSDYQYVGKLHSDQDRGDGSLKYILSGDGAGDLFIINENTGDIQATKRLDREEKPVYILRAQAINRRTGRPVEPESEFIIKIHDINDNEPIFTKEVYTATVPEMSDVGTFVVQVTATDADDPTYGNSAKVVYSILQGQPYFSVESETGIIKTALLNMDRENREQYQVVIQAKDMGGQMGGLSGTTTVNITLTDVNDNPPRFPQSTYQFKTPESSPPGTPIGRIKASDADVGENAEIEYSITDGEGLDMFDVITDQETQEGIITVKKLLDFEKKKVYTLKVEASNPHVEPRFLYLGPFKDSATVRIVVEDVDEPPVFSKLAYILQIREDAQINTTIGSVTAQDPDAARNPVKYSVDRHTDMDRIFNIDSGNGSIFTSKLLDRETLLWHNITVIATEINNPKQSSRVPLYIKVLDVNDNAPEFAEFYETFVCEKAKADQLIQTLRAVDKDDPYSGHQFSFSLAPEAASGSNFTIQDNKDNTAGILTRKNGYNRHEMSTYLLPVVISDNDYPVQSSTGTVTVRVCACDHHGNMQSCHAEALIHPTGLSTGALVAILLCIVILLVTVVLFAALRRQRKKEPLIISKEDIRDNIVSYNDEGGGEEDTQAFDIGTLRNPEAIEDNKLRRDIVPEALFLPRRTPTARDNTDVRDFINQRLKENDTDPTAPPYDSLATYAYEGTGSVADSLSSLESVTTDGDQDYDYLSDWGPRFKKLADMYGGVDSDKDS
The assay is described as follows: Cell-ELISA and flow cytometry screening of hybridoma supernatants on transfected cells. How it is done:
A coloring reaction was carried out with occasional stirring. Thereafter, 1 M HCl was added to the plate (100 μL/well) to terminate the coloring reaction, followed by measurement of the absorbance at 490 nm using a plate reader (ENVISION: PerkinElmer, Inc.).
The binding specificity to cynomolgus monkey CDH6 of an antibody produced from the human CDH6- and cynomolgus monkey CDH6-binding antibody-producing hybridomas that had been selected by Cell-ELISA in Example 1)-4 was further confirmed by flow cytometry. […] Thereafter, the cells were suspended by the addition of the culture supernatant from each hybridoma. The cells were left standing at 4° C. for 1 hour. The cells were washed twice with PBS supplemented with 5% FBS, and thereafter, the cells were suspended by the addition of Anti-Rat IgG FITC conjugate (Sigma-Aldrich Co. LLC) that had been 500-fold diluted with PBS supplemented with 5% FBS. The cells were left standing at 4° C. for 1 hour. The cells were washed twice with PBS supplemented with 5% FBS, and then re-suspended in PBS supplemented with 5% FBS and 2 μg/ml 7-aminoactinomycin D (Molecular Probes, Inc.), followed by detection using a flow cytometer (FC500; Beckman Coulter, Inc.). The data was analyzed using FlowJo (Tree Star, Inc.). After dead cells were removed from analysis by gating out 7-aminoactinomycin D-positive cells, a histogram of the FITC fluorescence intensity of live cells was generated.
For orientation: ELISA stands for enzyme-linked immunosorbent assay.

Assay [2] addresses T2, human CDH6 (full-length, on cells) (human, UniProt P55285 54-790).
T2 construct: also called hCDH6; full-length hCDH6
T2 sequence: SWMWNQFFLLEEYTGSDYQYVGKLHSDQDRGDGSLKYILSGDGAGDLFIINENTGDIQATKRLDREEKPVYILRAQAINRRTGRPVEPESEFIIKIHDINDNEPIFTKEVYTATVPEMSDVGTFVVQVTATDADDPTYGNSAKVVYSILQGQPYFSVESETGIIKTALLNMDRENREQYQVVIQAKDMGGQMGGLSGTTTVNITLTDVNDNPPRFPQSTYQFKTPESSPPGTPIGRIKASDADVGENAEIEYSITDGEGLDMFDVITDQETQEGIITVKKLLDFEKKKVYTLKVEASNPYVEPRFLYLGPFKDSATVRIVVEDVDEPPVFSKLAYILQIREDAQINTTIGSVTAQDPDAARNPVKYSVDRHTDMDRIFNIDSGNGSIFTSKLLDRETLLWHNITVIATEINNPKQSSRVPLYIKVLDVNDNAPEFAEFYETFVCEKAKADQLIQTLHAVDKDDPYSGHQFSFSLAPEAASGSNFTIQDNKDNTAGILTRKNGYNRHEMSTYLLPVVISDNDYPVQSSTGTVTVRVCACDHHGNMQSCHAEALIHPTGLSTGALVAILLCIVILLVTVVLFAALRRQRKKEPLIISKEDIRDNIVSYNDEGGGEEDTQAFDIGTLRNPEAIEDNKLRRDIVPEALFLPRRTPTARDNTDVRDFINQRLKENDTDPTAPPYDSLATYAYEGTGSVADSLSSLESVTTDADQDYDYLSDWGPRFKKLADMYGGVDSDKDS
In words: flow cytometry; hCDH6-transfected 293T cells (open) vs untransfected control cells (shaded); antibody 10 ng/mL; anti-rat IgG-FITC. How it is done:
The human CDH6-binding activity of the rat anti-CDH6 antibody produced in Example 1)-7 was evaluated by flow cytometry. […] The cells were cultured overnight under conditions of 37° C. and 5% CO₂, and thereafter, a cell suspension was prepared. […] Thereafter, the cells were suspended by the addition of each of the 4 rat anti-CDH6 monoclonal antibodies (clone Nos: rG019, rG055, rG056 and rG061), which had been prepared in Example 1)-7, or rat IgG control (R&D Systems, Inc.) (final concentration: 10 ng/mL). The cells were left standing at 4° C. for 1 hour. The cells were washed twice with PBS supplemented with 5% FBS, and then suspended by the addition of Anti-Rat IgG (whole molecule)-FITC antibody produced in rabbit (Sigma-Aldrich Co. LLC) that had been 50-fold diluted with PBS supplemented with 5% FBS. The cells were left standing at 4° C. for 1 hour. The cells were washed twice with PBS supplemented with 5% FBS, followed by detection using a flow cytometer (FC500; Beckman Coulter, Inc.). The data was analyzed using FlowJo (Tree Star, Inc.). In the histogram of FIG. 1, the abscissa depicts FITC fluorescence intensity indicating the amount of the antibody bound, and the ordinate depicts a cell count. […] The rat IgG control binds to neither of the cells.
(Flow cytometry measures light scatter and fluorescence of single cells or particles in a stream.)

B1: rG055 antibody (antibody, V domains shown)
VH: EVQLQESGPGLVRPSQSLSLSCSVTDYSITSNYWGWIRRFPGNKMEWMGYITYSGYTSYNPSLQSRISITRDTSKNQFFLQLNSVTAEDTATYYCARSINHGGYSYVVDAWGPGASVTVSS
VL: DVQMTHSPSYLAASPGESVSISCKTSKNISNYLVWYQQKPGEAYKLLIYSGSTLQSGTPSRFSGSGSGTDFTLTIRSLEPEDFGLYFCQQYYEKPFTFGSGTKLEIKR
notes: Rat monoclonal purified from hybridoma; also called rat anti-CDH6 monoclonal antibody clone rG055
As to B1, the binding result in assay [1] and in assay [2] was “binds” in each case.

B2: rG061 antibody (antibody, V domains shown)
VH: EVQLQESGPGLVKPSQSLSLTCSVTGYSITTYYWGWIRKFPGNKMEWMGYISYSGRTSYNPSLKSRMSITRDASKNQFFLQLNSVTTDDTATYYCARSPINHGGYWYFDFWGPGTMVTVSS
VL: DVQMTQSPSYLAASPGESVSISCKATKSISNYLAWYQQKPGEAYKVLIYSGSTLQSGTPSRFSGSGSGTDFTLTIRSLEPEDFGLYSCQQYYEKPLTFGSGTKLEIKR
notes: Rat monoclonal purified from hybridoma; also called rat anti-CDH6 monoclonal antibody clone rG061
In the case of B2, the binding result in assay [1] and in assay [2] was “binds” each time.

B3: rG019 antibody (antibody, V domains shown)
VH: QVQLQQSGAELVKPGSSVKISCKASGYTFTRNFMHWIKQQPGNGLEWIGWIYCGDGETEYNQKFNGKATLTADRSSSTAYMELSRLTSEDSAVYFCARGVYGGFAGGYFDFWGQGVMVTVSS
VL: DIQMTQSPSLLSASVGDRVTLNCKASQNIYKNLAWYQQKLGEGPKLLIYDANTLQTGIPSRFSGSGSGSDFTLTISSLQPEDVATYFCQQYYSGWAFGGVTNLELKRA
notes: Rat monoclonal purified from hybridoma; also called rat anti-CDH6 monoclonal antibody clone rG019
Regarding B3, the binding result in assay [1] and in assay [2] was “binds” throughout.

B4: rG056 antibody (antibody, V domains shown)
VH: EVQLQESGPGLVKPSQSLSLTCSVTDYSITTYFWGWIRKFPGNKMEWMGYMSYRGGTSYNPSLKSRISITRDTSKNQFFLQLNSVTTEDTATYYCARCPNYGGHSLVFDYWGQGVMVTVSS
VL: DVQMTQSPSSLAASPGESVSISCRATKSIGIYLAWYQQKPGKTFKLLIYSGSTLQSGTPSRFSGSGSGTDFTLTIRSLEPEDFGLYFCQQFYENPFTFGSGTKLEIRR
notes: Rat monoclonal purified from hybridoma; also called rat anti-CDH6 monoclonal antibody clone rG056
B4: the binding result in assay [1] and in assay [2] was “binds” throughout.
